Measured values from the supplement of paper PMC9732359.
± gives the uncertainty stated by the source.

Experiment: protein stability index of a GFP-peptide fusion (yeast GPS) (PSI 1-4); higher = more stable; sorted into four equal gates, so the index is relative within each strain
How it was run: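 Yeast carrying a pooled library were grown to mid-log phase in leucine-free medium. Each library plasmid expresses Cherry and has a tiled 17-residue yeast protein peptide fused downstream of GFP. Cells were sorted into four equal gates by GFP/Cherry ratio, and plasmids from each gate were PCR-amplified, Illumina-sequenced and assigned to strains by barcode. Summing, across gates, the read frequency times the gate number gave each peptide's protein stability index.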

LIIVTRKNYMHVKNFGF [YML031W/NDC1]
protein stability index (doa10∆): 1.22 ± 0.042
protein stability index (pdr5∆): 1.52 ± 0.048
protein stability index (san1∆): 1.51 ± 0.1
protein stability index (ubr1∆): 1.87 ± 0.04

KKFVSQIQKNVDLLQFP [POP3]
protein stability index (doa10∆): 2.65 ± 0.064
protein stability index (pdr5∆): 2.23 ± 0.073
protein stability index (san1∆): 3.34 ± 0.065
protein stability index (ubr1∆): 2.64 ± 0.053

AEKKIPLVIRRYLPDGS [RPO26]
protein stability index (doa10∆): 2.79 ± 0.09
protein stability index (pdr5∆): 2.54 ± 0.12
protein stability index (san1∆): 3.45 ± 0.066

MQENDKINQERLERRIN [CSI1]
protein stability index (doa10∆): 1.62 ± 0.065
protein stability index (pdr5∆): 1.92 ± 0.062
protein stability index (san1∆): 1.26 ± 0.1
protein stability index (ubr1∆): 1.27 ± 0.044

DVYSPEKGSWEQLSPQD [BRR2]
protein stability index (doa10∆): 3.15 ± 0.15
protein stability index (san1∆): 2.47 ± 0.24
protein stability index (ubr1∆): 3.34 ± 0.25

KRPTPPSFTFGGSTTNN [YOR098C/NUP1]
protein stability index (doa10∆): 2.74 ± 0.051
protein stability index (pdr5∆): 3.03 ± 0.048
protein stability index (san1∆): 2.78 ± 0.043
protein stability index (ubr1∆): 2.9 ± 0.032

NSIWGSSLRKNASGNKR [ITC1]
protein stability index (doa10∆): 1.6 ± 0.062
protein stability index (pdr5∆): 2.12 ± 0.097
protein stability index (san1∆): 2.5 ± 0.11
protein stability index (ubr1∆): 1.86 ± 0.044

EEEDSILSLEQSSRVVS [YCS4]
protein stability index (doa10∆): 3.11 ± 0.12
protein stability index (pdr5∆): 3.24 ± 0.08
protein stability index (san1∆): 3.19 ± 0.062
protein stability index (ubr1∆): 3.06 ± 0.086

GSQILSGVMDKSVLGDG [RPO31]
protein stability index (doa10∆): 3.49 ± 0.12
protein stability index (pdr5∆): 3.28 ± 0.12
protein stability index (san1∆): 3.41 ± 0.068
protein stability index (ubr1∆): 3.55 ± 0.067

LKKGEVSLGTSIMAVTF [PRE3]
protein stability index (pdr5∆): 1.67 ± 0.23
protein stability index (san1∆): 1.13 ± 0.18
protein stability index (ubr1∆): 1.13 ± 0.18

NDNEGKHISASIDNDFS [YAR002W/NUP60]
protein stability index (doa10∆): 3.05 ± 0.089
protein stability index (pdr5∆): 3.04 ± 0.071
protein stability index (san1∆): 3.19 ± 0.099
protein stability index (ubr1∆): 2.92 ± 0.067

SHFVSAVSTIASISLAI [RPP0]
protein stability index (doa10∆): 1.81 ± 0.073
protein stability index (pdr5∆): 1.37 ± 0.073
protein stability index (san1∆): 1.21 ± 0.13
protein stability index (ubr1∆): 1.11 ± 0.066

PHTPVTRKGYIPSSKYA [YLR018C/POM34]
protein stability index (doa10∆): 3.15 ± 0.065
protein stability index (pdr5∆): 3.18 ± 0.089
protein stability index (san1∆): 2.96 ± 0.082
protein stability index (ubr1∆): 3.07 ± 0.052

PLRLRLYDNFVSKFYDK [RPN9]
protein stability index (doa10∆): 3.17 ± 0.068
protein stability index (pdr5∆): 3.18 ± 0.068
protein stability index (san1∆): 3.17 ± 0.064
protein stability index (ubr1∆): 2.96 ± 0.079

GEMVGVLAAQSIGEPAT [RPO21]
protein stability index (doa10∆): 2.36 ± 0.087
protein stability index (pdr5∆): 2.55 ± 0.073
protein stability index (san1∆): 2.38 ± 0.066
protein stability index (ubr1∆): 2.58 ± 0.088

KQRAGTASFIPLDTIET [SMC1]
protein stability index (doa10∆): 2.62 ± 0.06
protein stability index (pdr5∆): 2.82 ± 0.064
protein stability index (san1∆): 2.65 ± 0.056
protein stability index (ubr1∆): 2.66 ± 0.051

IQRETLLPTNNGQPLNQ [GRR1]
protein stability index (doa10∆): 2.53 ± 0.072
protein stability index (pdr5∆): 2.91 ± 0.071
protein stability index (san1∆): 2.64 ± 0.06
protein stability index (ubr1∆): 2.65 ± 0.057

DKKHFNNKNKRVTGAGG [RPC53]
protein stability index (doa10∆): 3.15 ± 0.24
protein stability index (pdr5∆): 2.53 ± 0.17
protein stability index (san1∆): 3.16 ± 0.27
protein stability index (ubr1∆): 3.31 ± 0.075

VNASVDVDQHGNDNNSD [SWI3]
protein stability index (doa10∆): 3.13 ± 0.085
protein stability index (pdr5∆): 3.46 ± 0.081
protein stability index (san1∆): 3.52 ± 0.059
protein stability index (ubr1∆): 3.3 ± 0.038

YLREDQMIDTSILPTRD [NUT1]
protein stability index (doa10∆): 3.21 ± 0.069
protein stability index (pdr5∆): 2.98 ± 0.068
protein stability index (san1∆): 2.94 ± 0.072
protein stability index (ubr1∆): 2.42 ± 0.048

KCGSVTVRLIPAPRGSG [RPS2]
protein stability index (doa10∆): 1.35 ± 0.11
protein stability index (pdr5∆): 2.07 ± 0.072
protein stability index (san1∆): 1.4 ± 0.17
protein stability index (ubr1∆): 1.99 ± 0.1

SQFINDHILFTKTFIFI [SRB8]
protein stability index (doa10∆): 1.56 ± 0.054
protein stability index (pdr5∆): 1.48 ± 0.056
protein stability index (san1∆): 1.47 ± 0.089
protein stability index (ubr1∆): 1.41 ± 0.033

ATSVESVDIGVETILSG [FAS2]
protein stability index (doa10∆): 2.93 ± 0.084
protein stability index (pdr5∆): 2.9 ± 0.089
protein stability index (san1∆): 2.13 ± 0.089
protein stability index (ubr1∆): 3.1 ± 0.069

KLQSWDKVSSCFPQYVN [NNF1]
protein stability index (doa10∆): 1.42 ± 0.099
protein stability index (pdr5∆): 1.94 ± 0.09
protein stability index (san1∆): 1.45 ± 0.15
protein stability index (ubr1∆): 2.68 ± 0.1

DYCRILSDIETAVNGID [YGL172W/NUP49]
protein stability index (doa10∆): 3.28 ± 0.16
protein stability index (pdr5∆): 3.15 ± 0.13
protein stability index (san1∆): 2.75 ± 0.17
protein stability index (ubr1∆): 2.71 ± 0.1

QNIMTLPDGKNGNLEEE [MED6]
protein stability index (doa10∆): 3.37 ± 0.064
protein stability index (pdr5∆): 3.23 ± 0.11
protein stability index (san1∆): 3.37 ± 0.056
protein stability index (ubr1∆): 3.31 ± 0.091

KQVLDVDPVYKDVAKPT [FAS2]
protein stability index (doa10∆): 2.98 ± 0.065
protein stability index (pdr5∆): 2.99 ± 0.058
protein stability index (san1∆): 3.08 ± 0.037
protein stability index (ubr1∆): 2.86 ± 0.041

ISVARKIYDAFPQTAML [DIS3]
protein stability index (doa10∆): 2.41 ± 0.098
protein stability index (pdr5∆): 2.4 ± 0.072
protein stability index (san1∆): 2.61 ± 0.14
protein stability index (ubr1∆): 2.36 ± 0.089

VEESGEHVILGNGELYM [SNU114]
protein stability index (doa10∆): 3.31 ± 0.08
protein stability index (pdr5∆): 3.12 ± 0.066
protein stability index (san1∆): 3.3 ± 0.051
protein stability index (ubr1∆): 3.13 ± 0.057

PGPRLLYENIASSPIIL [RPN10]
protein stability index (doa10∆): 2.1 ± 0.03
protein stability index (pdr5∆): 2.29 ± 0.038
protein stability index (san1∆): 2.2 ± 0.057
protein stability index (ubr1∆): 2.12 ± 0.028

PMYKELWINYIKELLNI [POP4]
protein stability index (doa10∆): 1.67 ± 0.19
protein stability index (pdr5∆): 1.08 ± 0.11

LPTVGFDFIKDNETPSK [YOR098C/NUP1]
protein stability index (doa10∆): 3.15 ± 0.093
protein stability index (pdr5∆): 3.2 ± 0.056
protein stability index (san1∆): 3.08 ± 0.068
protein stability index (ubr1∆): 3.27 ± 0.053

RQCFREKANDIGFHKYR [RPS29B]
protein stability index (doa10∆): 3.34 ± 0.15
protein stability index (pdr5∆): 3.35 ± 0.13
protein stability index (san1∆): 2.96 ± 0.1
protein stability index (ubr1∆): 2.88 ± 0.1

SNLKISLVKYPELLDSL [SWI1]
protein stability index (doa10∆): 2.76 ± 0.074
protein stability index (pdr5∆): 2.69 ± 0.058
protein stability index (san1∆): 2.71 ± 0.074
protein stability index (ubr1∆): 2.96 ± 0.056

NANEISANTNNTCTIST [SWP82]
protein stability index (doa10∆): 2.61 ± 0.041
protein stability index (pdr5∆): 2.61 ± 0.045
protein stability index (san1∆): 2.9 ± 0.04
protein stability index (ubr1∆): 2.62 ± 0.031

SHNWAAKAKRRHTTGTG [RPL37B]
protein stability index (doa10∆): 3.29 ± 0.1
protein stability index (pdr5∆): 2.92 ± 0.058
protein stability index (san1∆): 3.33 ± 0.071
protein stability index (ubr1∆): 3.35 ± 0.056

ITSFLLSKMENVNLDDY [NAS6]
protein stability index (doa10∆): 1.95 ± 0.11
protein stability index (pdr5∆): 1.54 ± 0.052
protein stability index (san1∆): 1.87 ± 0.12
protein stability index (ubr1∆): 1.85 ± 0.057

VFENYVKKTGENEISSL [CDC53]
protein stability index (doa10∆): 3.14 ± 0.069
protein stability index (pdr5∆): 2.74 ± 0.072
protein stability index (san1∆): 2.9 ± 0.07
protein stability index (ubr1∆): 3.15 ± 0.042

RSDSYMLHKVLENKADP [RPT6]
protein stability index (doa10∆): 2.65 ± 0.1
protein stability index (pdr5∆): 2.99 ± 0.1
protein stability index (san1∆): 2.93 ± 0.056
protein stability index (ubr1∆): 2.83 ± 0.091

YVYRASKEVRGSKIRVM [RPL33A]
protein stability index (doa10∆): 2.75 ± 0.063
protein stability index (pdr5∆): 2.81 ± 0.086
protein stability index (san1∆): 2.5 ± 0.064
protein stability index (ubr1∆): 2.88 ± 0.049

SWNLTGTILSSAGDDGK [YGL100W/SEH1]
protein stability index (doa10∆): 1.37 ± 0.062
protein stability index (pdr5∆): 1.88 ± 0.068
protein stability index (san1∆): 3.03 ± 0.077
protein stability index (ubr1∆): 2.98 ± 0.084

TKYERARILGTRALQIS [RPO26]
protein stability index (pdr5∆): 1.36 ± 0.24
protein stability index (ubr1∆): 1.21 ± 0.13

SEDVSRDHEKDTYRTLM [YIL149C/MLP2]
protein stability index (doa10∆): 3.36 ± 0.047
protein stability index (pdr5∆): 3.41 ± 0.051
protein stability index (san1∆): 3.43 ± 0.035
protein stability index (ubr1∆): 3.33 ± 0.047

MTYKNKLTVCFDDILKV [MED2]
protein stability index (doa10∆): 2.13 ± 0.048
protein stability index (pdr5∆): 2 ± 0.041
protein stability index (san1∆): 1.9 ± 0.071
protein stability index (ubr1∆): 2.08 ± 0.033

PKAMTDTDNECVAAWGV [HRT1]
protein stability index (doa10∆): 3.23 ± 0.12
protein stability index (pdr5∆): 3.48 ± 0.17
protein stability index (san1∆): 3.03 ± 0.13
protein stability index (ubr1∆): 3.05 ± 0.042

KVKKPLKYLSVEEVIKL [PRE7]
protein stability index (doa10∆): 2.54 ± 0.084
protein stability index (pdr5∆): 2.63 ± 0.054
protein stability index (san1∆): 2.75 ± 0.083
protein stability index (ubr1∆): 2.23 ± 0.067

ALVAGIERYPLKVTKKH [RPL27A]
protein stability index (doa10∆): 2.17 ± 0.27
protein stability index (pdr5∆): 2.51 ± 0.12
protein stability index (san1∆): 1.87 ± 0.24

QNAADLQQICRVRNKDI [RPL9A]
protein stability index (doa10∆): 2.82 ± 0.088
protein stability index (pdr5∆): 3.3 ± 0.045
protein stability index (san1∆): 2.59 ± 0.087
protein stability index (ubr1∆): 2.89 ± 0.06

SNKILVYESEMEQCKQR [YIL149C/MLP2]
protein stability index (doa10∆): 2.72 ± 0.17
protein stability index (pdr5∆): 2.95 ± 0.17
protein stability index (san1∆): 2.18 ± 0.28
protein stability index (ubr1∆): 3.16 ± 0.26

DSNTTEILTSVDVLGTH [SIR4]
protein stability index (doa10∆): 2.92 ± 0.063
protein stability index (pdr5∆): 2.96 ± 0.058
protein stability index (san1∆): 2.93 ± 0.06
protein stability index (ubr1∆): 3.04 ± 0.036

LADDLITKMLASDESLL [RPN2]
protein stability index (doa10∆): 1.94 ± 0.11
protein stability index (pdr5∆): 2.29 ± 0.14
protein stability index (san1∆): 1.86 ± 0.14

LGRDYPIEVDEELLQLF [IRR1]
protein stability index (doa10∆): 2.19 ± 0.24
protein stability index (pdr5∆): 1.99 ± 0.24
protein stability index (ubr1∆): 1.81 ± 0.24

DSEERDPKLEKCLNYRN [ITC1]
protein stability index (doa10∆): 2.85 ± 0.07
protein stability index (pdr5∆): 2.74 ± 0.088
protein stability index (san1∆): 2.71 ± 0.061
protein stability index (ubr1∆): 2.49 ± 0.038
